The subject of data set [1] is Q99816. Kind of data set: circular dichroism thermal unfolding. The note with it: other: circular dichroism thermal unfolding.
Data set [2] concerns Q99816. The data set can be described thus: differential scanning calorimetry. The following applies: other: differential scanning calorimetry.
In data set [3] the target is Tumor susceptibility gene-101 coiled coil domain (TSG101cc), residues 229-304 (human) (UniProt Q99816). Kind of data set: circular dichroism thermal unfolding.
For data set [4] the target is unchanged. The data set can be described thus: differential scanning calorimetry.

Chain of Tumor susceptibility gene-101 coiled coil domain (TSG101cc), residues 229-304 (Q99816 2-390): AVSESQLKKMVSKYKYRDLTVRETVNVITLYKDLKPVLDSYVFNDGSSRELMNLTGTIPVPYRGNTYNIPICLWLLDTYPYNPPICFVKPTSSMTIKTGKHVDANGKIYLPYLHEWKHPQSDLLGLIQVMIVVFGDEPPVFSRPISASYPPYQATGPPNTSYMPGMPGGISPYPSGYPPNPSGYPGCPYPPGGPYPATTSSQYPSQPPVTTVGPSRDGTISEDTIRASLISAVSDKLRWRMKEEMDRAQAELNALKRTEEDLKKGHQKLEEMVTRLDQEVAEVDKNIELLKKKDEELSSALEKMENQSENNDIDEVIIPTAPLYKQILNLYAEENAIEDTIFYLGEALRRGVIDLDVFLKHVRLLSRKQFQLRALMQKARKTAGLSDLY

Take “Tumor susceptibility gene-101 coiled coil domain (TSG101cc), residues 229-304”: the dH (unfolding and dissociation of the tetramer, per mol of monomer) in data set [1] is 56.5 kcal/mol; in data set [2], 45.6 kcal/mol.
With “Tumor susceptibility gene-101 coiled coil domain (TSG101cc), residues 229-304 (from UniProt Q99816 229-304) (domain or fragment)”, the stoichiometry N in data set [3] and in data set [4] was 4 in each case.

The values above are taken from paper PMC5616090.
